Data: PMC6515139, “Oligomeric Architecture of Mouse Activating Nkrp1 Receptors on Living Cells” (International Journal of Molecular Sciences, 2019)
Substitutions are numbered along the chain they refer to. Names and notes keep the numbering of the source.

Experiments:
[1] = molecular target: EGFP-Nkrp1a_C74,88S (mouse (C57BL/6)) (UniProt P27811); experiment: FRET or BRET; homo-FRET (steady-state fluorescence anisotropy of EGFP, time-domain, TCSPC) at the plasma membrane of living transfected Jurkat cells on PLL-coated slides, 37 °C; semi-quantitative, calibrated by monomeric LAT and dimeric CD8α
[2] = molecular target: EGFP-Nkrp1a_C74S (mouse (C57BL/6)) (UniProt P27811); experiment: as above
[3] = molecular target: EGFP-Nkrp1c2 (mouse (C57BL/6)); experiment: as above
[4] = molecular target: EGFP-Nkrp1a_C88S (mouse (C57BL/6)) (UniProt P27811); experiment: as above
[5] = molecular target: the molecule itself; experiment: as above
[6] = molecular target: the molecule itself; experiment: SEC + other: SDS-PAGE under reducing and non-reducing conditions; refolded ectodomains on calibrated Superdex 75 (Nkrp1a^ECTO: 150 mM NaCl, 15 mM Tris-HCl pH 7.5; the others: 10 mM HEPES pH 7.4, 100 mM NaCl); main peaks analysed on 15% SDS-PAGE

Molecule: EGFP-Nkrp1a_C74,88S (from UniProt P27811 1-227) (receptor)
- steady-state anisotropy, mean [1]: 0.285
- steady-state anisotropy, median [1]: 0.283

Molecule: EGFP-Nkrp1a_C74S (from UniProt P27811 1-227) (receptor)
- steady-state anisotropy, mean [2]: 0.273
- steady-state anisotropy, median [2]: 0.272

Molecule: EGFP-Nkrp1c2 (receptor)
- steady-state anisotropy, mean [3]: 0.248
- steady-state anisotropy, median [3]: 0.249

Molecule: EGFP-Nkrp1a_C88S (from UniProt P27811 1-227) (receptor)
- steady-state anisotropy, mean [4]: 0.267
- steady-state anisotropy, median [4]: 0.266

B1: EGFP-Nkrp1a (receptor, mouse (C57BL/6), UniProt P27811 1-227, looked up)
chain: MDTARVYFGLKPPRTPGAWHESPPSLPPDACRCPRSHRLALKLSCAGLILLVVTLIGMSVLVRVLIQKPSIEKCYVLIQENLNKTTDCSAKLECPQDWLSHRDKCFQVSHVSNTWEEGLVDCDGKGATLMLIQDQEELRFLLDSIKEKYNSFWIGLRYTLPDMNWKWINGSTLNSDVLKITGDTENDSCAAISGDKVTFESCNSDNRWICQKELYHETLSNYVGYGH
notes: last residue H227; Vector pXJ41; also called Nkrp1a1; a1 isoform; source: Jurkat, transiently transfected, living cells; COS-7, transiently transfected, in lysate; not shown: EGFP (with spacer GSGGGS), N-terminal, kept
- steady-state anisotropy, mean [5]: 0.269
- steady-state anisotropy, median [5]: 0.271

B2: EGFP-Nkrp1f (receptor, mouse (C57BL/6), UniProt Q8VD98 1-217, looked up)
chain: MDTSKVHGNVKPFRCPGYKQASSPSFSPDACRCPHWHHLALKSGCAGLILLLLSLIGLSVLVRFLVQKPPIEKCSVAAQENRTELTGRSAILECPRYWHPHWNKCLFVSQISRPWAEGRDACSMEDAILLLIENKEELRFVQNLIKGKEQLFFIGLKYVQKEKIWKWIDGSILNPNLLRITGKDKENSCAIISHTEVFSDSCSSDNHWICQKTLIHV
notes: last residue V217; Vector pXJ41; also called f isoform; source: Jurkat, transiently transfected, living cells; COS-7, transiently transfected, in lysate; not shown: EGFP (with spacer GSGGGS), N-terminal, kept
- steady-state anisotropy, mean [5]: 0.25
- steady-state anisotropy, median [5]: 0.25

B3: EGFP-Nkrp1f_C74S (receptor, mouse (C57BL/6), UniProt Q8VD98 1-217, looked up)
chain: B2 chain with C74S
notes: Two extra C-terminal residues (Thr-Gly) possible as for m8 (surmise from the primer); also called C74S mutant of Nkrp1f; source: Jurkat, transiently transfected, living cells; COS-7, transiently transfected, in lysate; not shown: EGFP (with spacer GSGGGS), N-terminal, kept
- steady-state anisotropy, mean [5]: 0.281
- steady-state anisotropy, median [5]: 0.281

B4: EGFP-Nkrp1c1 (receptor, mouse (C57BL/6), UniProt P27814 1-223, looked up)
chain: MDTASIYLGLKPPRTLGAWHESPPSLPPDACRCPRSHRLALKLSCAGLILLVLTLIGMSVLVRVLVQKPSREKCCVFIQENLNKTTDCSVNLECPQDWLLHRDKCFHVSQVSNTWEEGQADCGRKGATLLLIQDQEELRFLLDSIKEKYNSFWIGLRFTLPDMNWKWINGTTFNSDVLKITGVTENGSCASILGDKVTPESCASDNRWICQKELNHETPSNDS
notes: last residue S223; Vector pXJ41; also called c1 isoform; source: Jurkat, transiently transfected, living cells; COS-7, transiently transfected, in lysate; not shown: EGFP (with spacer GSGGGS), N-terminal, kept
- steady-state anisotropy, mean [5]: 0.244
- steady-state anisotropy, median [5]: 0.242

B5: Nkrp1c1^ECTO (domain or fragment, mouse (C57BL/6), UniProt P27814 70-223, looked up)
chain: SREKCCVFIQENLNKTTDCSVNLECPQDWLLHRDKCFHVSQVSNTWEEGQADCGRKGATLLLIQDQEELRFLLDSIKEKYNSFWIGLRFTLPDMNWKWINGTTFNSDVLKITGVTENGSCASILGDKVTPESCASDNRWICQKELNHETPSNDS
notes: mouse (C57BL/6) Nkrp1c isoform c1 ectodomain with stalk, residues S70-S223; Cloned into pET-30a(+) between NdeI and HindIII; an initiator Met may precede S70 (surmise); The monomeric form bears cysteamine on C88; the dimeric form has a C88-C88 disulfide; also called Nkrpc1^ECTO; recombinant ectodomain of Nkrp1c1
- stoichiometry N [6]: 2

B6: Nkrp1f^ECTO (domain or fragment, mouse (C57BL/6), UniProt Q8VD98 67-217, looked up)
chain: QKPPIEKCSVAAQENRTELTGRSAILECPRYWHPHWNKCLFVSQISRPWAEGRDACSMEDAILLLIENKEELRFVQNLIKGKEQLFFIGLKYVQKEKIWKWIDGSILNPNLLRITGKDKENSCAIISHTEVFSDSCSSDNHWICQKTLIHV
notes: mouse (C57BL/6) Nkrp1f ectodomain with stalk, residues Q67-V217; Cloned into pET-30a(+) between NdeI and HindIII; an initiator Met may precede Q67 (surmise); The monomeric form bears cysteamine on C74; the dimeric form has a C74-C74 disulfide; also called recombinant ectodomain of Nkrp1f
- stoichiometry N [6]: 2
